Results: PMC11074293 (2024)

Columns and labels:
Test in all cases: ITC
CUL3^Δ1–13-RBX1 = CUL3^Δ1–13-RBX1 (human, UniProt Q13618 14-768; P62877 1-108)
CUL3^Δ1–24-RBX1 = CUL3^Δ1–24-RBX1 (human, UniProt Q13618 25-768; P62877 1-108)
CUL3^WT-RBX1 = CUL3^WT-RBX1 (human, UniProt Q13618 1-768; P62877 1-108)
CUL3^WT-RBX1, sequence (Q13618 whole entry, chain 1 of 2): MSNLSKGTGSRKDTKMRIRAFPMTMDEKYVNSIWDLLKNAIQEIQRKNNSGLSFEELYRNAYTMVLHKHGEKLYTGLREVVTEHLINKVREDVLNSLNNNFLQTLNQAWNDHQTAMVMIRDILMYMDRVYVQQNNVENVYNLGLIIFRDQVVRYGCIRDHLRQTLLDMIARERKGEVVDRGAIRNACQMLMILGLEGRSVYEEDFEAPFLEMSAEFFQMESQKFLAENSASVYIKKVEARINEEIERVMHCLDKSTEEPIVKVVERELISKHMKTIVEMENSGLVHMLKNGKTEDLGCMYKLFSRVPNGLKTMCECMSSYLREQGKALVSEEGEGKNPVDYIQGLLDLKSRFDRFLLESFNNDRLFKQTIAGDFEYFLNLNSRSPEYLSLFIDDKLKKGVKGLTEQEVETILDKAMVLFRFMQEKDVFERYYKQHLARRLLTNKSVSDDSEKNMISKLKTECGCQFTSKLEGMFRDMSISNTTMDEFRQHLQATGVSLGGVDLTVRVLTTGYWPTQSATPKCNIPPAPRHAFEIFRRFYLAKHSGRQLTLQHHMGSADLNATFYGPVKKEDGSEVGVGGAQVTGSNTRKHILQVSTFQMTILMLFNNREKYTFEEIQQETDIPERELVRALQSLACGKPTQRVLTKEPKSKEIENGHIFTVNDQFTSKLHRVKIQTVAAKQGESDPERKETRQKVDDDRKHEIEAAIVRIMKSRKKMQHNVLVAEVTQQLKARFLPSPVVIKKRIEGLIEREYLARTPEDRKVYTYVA
CUL3^WT-RBX1, sequence (P62877 whole entry, chain 2 of 2): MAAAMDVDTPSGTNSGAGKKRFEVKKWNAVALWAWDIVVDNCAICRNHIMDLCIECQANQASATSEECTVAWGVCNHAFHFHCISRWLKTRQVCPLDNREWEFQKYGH

CUL3^Δ1–24-RBX1, sequence (Q13618 25-768, stated change not applied, chain 1 of 2): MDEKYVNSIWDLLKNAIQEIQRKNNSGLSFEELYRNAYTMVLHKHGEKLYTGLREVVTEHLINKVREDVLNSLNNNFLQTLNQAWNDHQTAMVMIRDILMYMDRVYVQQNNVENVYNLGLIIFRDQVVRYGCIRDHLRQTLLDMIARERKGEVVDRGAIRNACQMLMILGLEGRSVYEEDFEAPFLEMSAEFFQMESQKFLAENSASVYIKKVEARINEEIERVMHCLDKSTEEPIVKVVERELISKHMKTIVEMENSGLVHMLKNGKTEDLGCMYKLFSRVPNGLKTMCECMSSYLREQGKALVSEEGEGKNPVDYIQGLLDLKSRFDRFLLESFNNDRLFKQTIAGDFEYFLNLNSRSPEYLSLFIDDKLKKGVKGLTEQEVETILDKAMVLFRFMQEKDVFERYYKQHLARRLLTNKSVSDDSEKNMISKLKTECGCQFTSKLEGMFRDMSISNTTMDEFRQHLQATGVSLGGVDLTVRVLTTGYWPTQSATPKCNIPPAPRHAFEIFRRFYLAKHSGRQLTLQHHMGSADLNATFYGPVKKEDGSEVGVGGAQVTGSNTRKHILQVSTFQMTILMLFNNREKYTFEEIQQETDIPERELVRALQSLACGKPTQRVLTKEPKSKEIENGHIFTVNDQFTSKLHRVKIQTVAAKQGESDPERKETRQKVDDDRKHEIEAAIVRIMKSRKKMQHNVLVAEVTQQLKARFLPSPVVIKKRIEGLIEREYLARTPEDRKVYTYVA
CUL3^Δ1–24-RBX1, sequence (P62877 whole entry, stated change not applied, chain 2 of 2): as the sequence (P62877 whole entry, chain 2 of 2) above
CUL3^Δ1–13-RBX1, sequence (Q13618 14-768, stated change not applied, chain 1 of 2): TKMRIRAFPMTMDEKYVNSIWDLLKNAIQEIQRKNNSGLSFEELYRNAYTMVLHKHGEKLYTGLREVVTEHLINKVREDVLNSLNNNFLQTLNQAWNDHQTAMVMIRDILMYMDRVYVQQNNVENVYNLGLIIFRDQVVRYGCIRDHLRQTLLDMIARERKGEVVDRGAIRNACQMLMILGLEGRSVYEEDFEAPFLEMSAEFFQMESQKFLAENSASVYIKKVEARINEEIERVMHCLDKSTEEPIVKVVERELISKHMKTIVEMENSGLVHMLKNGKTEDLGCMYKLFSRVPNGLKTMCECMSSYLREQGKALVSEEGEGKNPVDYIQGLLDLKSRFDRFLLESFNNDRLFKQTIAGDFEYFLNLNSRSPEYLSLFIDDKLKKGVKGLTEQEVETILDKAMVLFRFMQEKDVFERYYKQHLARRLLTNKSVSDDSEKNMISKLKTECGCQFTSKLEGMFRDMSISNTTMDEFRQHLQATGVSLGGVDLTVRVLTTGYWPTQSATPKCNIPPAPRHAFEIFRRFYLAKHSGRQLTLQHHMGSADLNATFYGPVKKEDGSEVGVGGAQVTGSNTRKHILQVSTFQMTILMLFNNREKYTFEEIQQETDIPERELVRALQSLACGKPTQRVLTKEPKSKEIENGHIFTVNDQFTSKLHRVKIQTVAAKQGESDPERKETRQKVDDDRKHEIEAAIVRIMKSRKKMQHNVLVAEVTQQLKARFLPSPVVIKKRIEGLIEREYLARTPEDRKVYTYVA
CUL3^Δ1–13-RBX1, sequence (P62877 whole entry, stated change not applied, chain 2 of 2): as the sequence (P62877 whole entry, chain 2 of 2) above

- Kd (CUL3^Δ1–13-RBX1): 176 nM
- Kd (CUL3^Δ1–24-RBX1): 483 nM
- Kd (CUL3^WT-RBX1): 60 nM
B1: KLHL22^1–178 (domain or fragment)
chain: MAEEQEFTQLCKLPAQPSHPHCVNNTYRSAQHSQALLRGLLALRDSGILFDVVLVVEGRHIEAHRILLAASCDYFRGMFAGGLKEMEQEEVLIHGVSYNAMCQILHFIYTSELELSLSNVQETLVAACQLQIPEIIHFCCDFLMSWVDEENILDVYRLAELFDLSRLTEQLDTYILKN
